Source: the supplement of paper PMC10567573

B1: ZNF207 (parent)
chain: FPSAGQAQAAVQGPVGTDFKPLNS

Variants of: B1
Test: protein stability index of a GFP-peptide fusion (GPS, HEK-293T) (PSI 1-6); higher = more stable
Details: c terminus: a fixed tail appended
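Note: lentivirally expressed fusions sorted by FACS into six bins by GFP to DsRed ratio, PSI derived from sequencing read proportions per bin multiplied by bin number.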

Variant	protein stability index
FDSAGQAQAAVQGPVGTDFKPLNS	4.73
FESAGQAQAAVQGPVGTDFKPLNS	4.71
FHSAGQAQAAVQGPVGTDFKPLNS	2.26
FCSAGQAQAAVQGPVGTDFKPLNS	2.7
FRSAGQAQAAVQGPVGTDFKPLNS	4.43
FQSAGQAQAAVQGPVGTDFKPLNS	3.81
FSSAGQAQAAVQGPVGTDFKPLNS	3.16
FWSAGQAQAAVQGPVGTDFKPLNS	3.65
FYSAGQAQAAVQGPVGTDFKPLNS	3.47
FASAGQAQAAVQGPVGTDFKPLNS	3.46
FVSAGQAQAAVQGPVGTDFKPLNS	1.97
FTSAGQAQAAVQGPVGTDFKPLNS	2.17
FMSAGQAQAAVQGPVGTDFKPLNS	3.93
FLSAGQAQAAVQGPVGTDFKPLNS	3.41
FKSAGQAQAAVQGPVGTDFKPLNS	4.27
FGSAGQAQAAVQGPVGTDFKPLNS	4.14
FNSAGQAQAAVQGPVGTDFKPLNS	4.11
FISAGQAQAAVQGPVGTDFKPLNS	2.89
FFSAGQAQAAVQGPVGTDFKPLNS	3.33
YPSAGQAQAAVQGPVGTDFKPLNS	3.29
FPSAGMAQAAVQGPVGTDFKPLNS	2.8
FPSAGSAQAAVQGPVGTDFKPLNS	3.65
FPSAGRAQAAVQGPVGTDFKPLNS	3.01
FPSAGHAQAAVQGPVGTDFKPLNS	3.58

Variant	protein stability index
FPSAGEAQAAVQGPVGTDFKPLNS	4.16
FPSAGTAQAAVQGPVGTDFKPLNS	3.96
FPSAGPAQAAVQGPVGTDFKPLNS	4.23
FPSAGKAQAAVQGPVGTDFKPLNS	2.76
FPSAGDAQAAVQGPVGTDFKPLNS	4.37
FPSAGAAQAAVQGPVGTDFKPLNS	3.72
FPSAGIAQAAVQGPVGTDFKPLNS	2.72
FPSAGGAQAAVQGPVGTDFKPLNS	3.65
FPSAGLAQAAVQGPVGTDFKPLNS	2.81
FPSAGCAQAAVQGPVGTDFKPLNS	2.42
FPSAGVAQAAVQGPVGTDFKPLNS	3.41
FPSAGNAQAAVQGPVGTDFKPLNS	3.62
FPSAGFAQAAVQGPVGTDFKPLNS	2.5
FPSMGQAQAAVQGPVGTDFKPLNS	3.8
FPSCGQAQAAVQGPVGTDFKPLNS	2.52
FPSHGQAQAAVQGPVGTDFKPLNS	3.71
FPSYGQAQAAVQGPVGTDFKPLNS	3.51
FPSLGQAQAAVQGPVGTDFKPLNS	4.25
FPSSGQAQAAVQGPVGTDFKPLNS	3.27
FPSPGQAQAAVQGPVGTDFKPLNS	4.16
FPSKGQAQAAVQGPVGTDFKPLNS	3.71
FPSFGQAQAAVQGPVGTDFKPLNS	3.82
FPSVGQAQAAVQGPVGTDFKPLNS	3.9
FPSWGQAQAAVQGPVGTDFKPLNS	2.62

Variant	protein stability index
FPSEGQAQAAVQGPVGTDFKPLNS	4.58
FPSGGQAQAAVQGPVGTDFKPLNS	2.98
FPSDGQAQAAVQGPVGTDFKPLNS	4.68
FPSIGQAQAAVQGPVGTDFKPLNS	4.41
FPSQGQAQAAVQGPVGTDFKPLNS	3.77
FPSNGQAQAAVQGPVGTDFKPLNS	4.08
FPSRGQAQAAVQGPVGTDFKPLNS	3.87
FPSTGQAQAAVQGPVGTDFKPLNS	4.39
FPSAFQAQAAVQGPVGTDFKPLNS	1.51
FPSADQAQAAVQGPVGTDFKPLNS	4.67
FPSASQAQAAVQGPVGTDFKPLNS	3.3
FPSAEQAQAAVQGPVGTDFKPLNS	4.17
FPSAWQAQAAVQGPVGTDFKPLNS	1.66
FPSAYQAQAAVQGPVGTDFKPLNS	1.82
FPSANQAQAAVQGPVGTDFKPLNS	4.08
FPSALQAQAAVQGPVGTDFKPLNS	3.19
FPSAHQAQAAVQGPVGTDFKPLNS	3.79
FPSAPQAQAAVQGPVGTDFKPLNS	4.07
FPSAMQAQAAVQGPVGTDFKPLNS	3.01
FPSAVQAQAAVQGPVGTDFKPLNS	3.96
FPSATQAQAAVQGPVGTDFKPLNS	4.11
FPSAIQAQAAVQGPVGTDFKPLNS	4.11
FPSAKQAQAAVQGPVGTDFKPLNS	4.23
FPSAAQAQAAVQGPVGTDFKPLNS	2.44

Variant	protein stability index
FPSAQQAQAAVQGPVGTDFKPLNS	4.19
FPSACQAQAAVQGPVGTDFKPLNS	2.75
FPSARQAQAAVQGPVGTDFKPLNS	3.78
FPVAGQAQAAVQGPVGTDFKPLNS	3.61
FPDAGQAQAAVQGPVGTDFKPLNS	4.27
FPQAGQAQAAVQGPVGTDFKPLNS	3.81
FPMAGQAQAAVQGPVGTDFKPLNS	3.43
FPWAGQAQAAVQGPVGTDFKPLNS	3.44
FPYAGQAQAAVQGPVGTDFKPLNS	2.34
FPFAGQAQAAVQGPVGTDFKPLNS	3.03
FPEAGQAQAAVQGPVGTDFKPLNS	3.93
FPRAGQAQAAVQGPVGTDFKPLNS	2.83
FPPAGQAQAAVQGPVGTDFKPLNS	3.63
FPGAGQAQAAVQGPVGTDFKPLNS	3.75
FPNAGQAQAAVQGPVGTDFKPLNS	3.08
FPTAGQAQAAVQGPVGTDFKPLNS	4
FPLAGQAQAAVQGPVGTDFKPLNS	4.05
FPHAGQAQAAVQGPVGTDFKPLNS	3.35
FPAAGQAQAAVQGPVGTDFKPLNS	3.17
FPCAGQAQAAVQGPVGTDFKPLNS	2.61
FPIAGQAQAAVQGPVGTDFKPLNS	4.35
FPKAGQAQAAVQGPVGTDFKPLNS	3.17
